Paper PMC5676521

Substrate: C[S+](CC[C@H](N)C(=O)[O-])C[C@H]1O[C@@H](n2cnc3c(N)ncnc32)[C@H](O)[C@@H]1O
Test: purified protein
Conditions: varied: cofactor

B1: PRMT7 (TbPRMT7) (Trypanosoma brucei brucei TREU927) (protein)
chain: MPPKQHRHQKKDKNDNALQNTIGFVPPGATLASVSGYRPPDAFVNRIDRNIPVPARLRHTPVSLIEAVNDFHYAMMNDEERNNFYYEVLKKHVTPETGVLEIGAGSGLLSLMAAKLGAKWVVAVEGSEELAKLARENIRANNMEHQVKVLHMMSTELKSKHLPEPPDVLLSEIFGTMMLGESALDYVVDVRNRLLKPTTKIIPQFGTQYAVPIECDALHRISSVSGWRDLDLKHMMTLQDTVSIVFAKHYGIRMNSVNFRRLSDPIELFRVDFSSSNRNDIPRRKHFDVVAKESGTAHAMLFYWKVTDDEFVMSTDPEDTVNNFPRDMQWGQALQLLDASNGPLPTPVVFTEGKNYNFECNFSGDRVILHMQLCPESGNGEMTECEGKTT
Km: 1.1 ± 0.2 µM | kcat: 22.3 ± 0.6 h^–1
